# Results reported in patent publication US10227388B2, “Peptides and combination of peptides for use in immunotherapy against non-small cell lung cancer and other cancers” (immatics biotechnologies GmbH, priority 2015, dated 2019).
# Target: HLA-A*02:01 (Homo sapiens, UniProt P04439, D140Y/D185E/D98H/E176V/E277Q/G131W/G231S/I119V/I121R/I166T/I218V/L300P/L318F/N151K/N90K/P208A/P217A/Q86G/Q94H/R138H/R169H/T345S)
# Assay: MHC binding assay (UV-ligand exchange, ELISA, peptide exchange yield)
# Conditions: binding of HLA-class I restricted peptides to HLA-A*02:01
# From the text: Candidate peptides for T cell based therapies according to the present invention were further tested for their MHC binding capacity (affinity). The individual peptide-MHC complexes were produced by UV-ligand exchange, where a UV-sensitive peptide is cleaved upon UV-irradiation, and exchanged with the peptide of interest as analyzed. Only peptide candidates that can effectively bind and stabilize the peptide-receptive MHC molecules prevent dissociation of the MHC complexes. To determine the yield of the exchange reaction, an ELISA was performed based on the detection of the light chain ([…]) of stabilized MHC complexes. The assay was performed as generally described in Rodenko et al. (Rodenko et al., 2006).
# 96 well MAXISorp plates (NUNC) were coated over night with 2-ug/ml streptavidin in PBS at room temperature, washed 4× and blocked for 1 h at 37° C. in 2% BSA containing blocking buffer. […] Peptide-MHC monomers of the UV-exchange reaction were diluted 100 fold in blocking buffer. Samples were incubated for 1 h at 37° C., washed four times, incubated with 2-ug/ml HRP conjugated anti-β2m for 1 h at 37° C., washed again and detected with TMB solution that is stopped with […]. Absorption was measured at 450 nm. Candidate peptides that show a high exchange yield (preferably higher than 50%, most preferred higher than 75%) are generally preferred for a generation and production of antibodies or fragments thereof, and/or T cell receptors or fragments thereof, as they show sufficient avidity to the MHC molecules and prevent dissociation of the MHC complexes.
row,"Peptide exchange (MHC class I binding score, peptide exchange yield)",Substance
1,″+++″ (≥50% = +++),346 (LLDSKVPSV; listed as Homo sapiens) [compound 346]
2,″+++″ (≥50% = +++),205 (SLYPGTETMGL; listed as Homo sapiens) [compound 205]
3,″+++″ (≥50% = +++),586 (KLKPGDLVGV; listed as Homo sapiens) [compound 586]
4,″++++″ (≥75% = ++++),68 (SLMELPRGLFL; listed as Homo sapiens) [compound 68]
5,″++″ (≥20% = ++),510 (KLYSVVSQL; listed as Homo sapiens) [compound 510]
6,″++″ (≥20% = ++),513 (SLWPSPEQL; listed as Homo sapiens) [compound 513]
7,″+++″ (≥50% = +++),164 (ALLPQPKNLTV; listed as Homo sapiens) [compound 164]
8,″++++″ (≥75% = ++++),91 (IMQDFPAEIFL; listed as Homo sapiens) [compound 91]
9,″+++″ (≥50% = +++),26 (ALLELAEEL; listed as Homo sapiens) [compound 26]
10,″++″ (≥20% = ++),353 (YLFEMDSSL; listed as Homo sapiens) [compound 353]
11,″+++″ (≥50% = +++),543 (GLLPTPITQQASL; listed as Homo sapiens) [compound 543]
12,″+++″ (≥50% = +++),596 (ALLDQTKTLAESAL; listed as Homo sapiens) [compound 596]
13,″+++″ (≥50% = +++),325 (FIMPATVADATAV; listed as Homo sapiens) [compound 325]
14,″+++″ (≥50% = +++),111 (YVWGFYPAEV; listed as Homo sapiens) [compound 111]
15,″++++″ (≥75% = ++++),7 (SLVGLLLYL; listed as Homo sapiens) [compound 7]
16,″++″ (≥20% = ++),559 (VTVPPGPSL; listed as Homo sapiens) [compound 559]
17,″+++″ (≥50% = +++),519 (GLLHLTLLL; listed as Homo sapiens) [compound 519]
18,″+++″ (≥50% = +++),6 (VLVSDGVHSV; listed as Homo sapiens) [compound 6]
19,″++″ (≥20% = ++),21 (VLDELDMEL; listed as Homo sapiens) [compound 21]
20,″++″ (≥20% = ++),590 (SLIEKLWQT; listed as Homo sapiens) [compound 590]
21,″++″ (≥20% = ++),494 (ALQPEPIKV; listed as Homo sapiens) [compound 494]

row,"Peptide exchange (MHC class I binding score, peptide exchange yield)",Substance
1,″+++″ (≥50% = +++),74 (ALLDPEVLSIFV; listed as Homo sapiens) [compound 74]
2,″+++″ (≥50% = +++),426 (RLADKSVLV; listed as Homo sapiens) [compound 426]
3,″+++″ (≥50% = +++),517 (LLMPIPEGLTL; listed as Homo sapiens) [compound 517]
4,″+++″ (≥50% = +++),462 (KLAKQPETV; listed as Homo sapiens) [compound 462]
5,″+++″ (≥50% = +++),96 (YIFTDNPAAV; listed as Homo sapiens) [compound 96]
6,″++″ (≥20% = ++),218 (SALEELVNV; listed as Homo sapiens) [compound 218]
7,″++++″ (≥75% = ++++),108 (ALFPGVALLLA; listed as Homo sapiens) [compound 108]
8,″+++″ (≥50% = +++),507 (KLIDDQDISISL; listed as Homo sapiens) [compound 507]
9,″+++″ (≥50% = +++),45 (SLWQDIPDV; listed as Homo sapiens) [compound 45]
10,″++++″ (≥75% = ++++),237 (ALLEASGTLLL; listed as Homo sapiens) [compound 237]
11,″++++″ (≥75% = ++++),387 (ALFQATAEV; listed as Homo sapiens) [compound 387]
12,″+++″ (≥50% = +++),583 (ILANDGVLLAA; listed as Homo sapiens) [compound 583]
13,″+++″ (≥50% = +++),311 (RLYTGMHTV; listed as Homo sapiens) [compound 311]
14,″+++″ (≥50% = +++),266 (KITDTLIHL; listed as Homo sapiens) [compound 266]
15,″+++″ (≥50% = +++),496 (FLVEKQPPQV; listed as Homo sapiens) [compound 496]
16,″+++″ (≥50% = +++),317 (SLAALVVHV; listed as Homo sapiens) [compound 317]
17,″+++″ (≥50% = +++),567 (SLLPLDDIVRV; listed as Homo sapiens) [compound 567]
18,″+++″ (≥50% = +++),484 (SLIEKVTQL; listed as Homo sapiens) [compound 484]
19,″+++″ (≥50% = +++),486 (AVMESIQGV; listed as Homo sapiens) [compound 486]
20,″++++″ (≥75% = ++++),371 (FLQAHLHTA; listed as Homo sapiens) [compound 371]
21,″+++″ (≥50% = +++),598 (FLFPHSVLV; listed as Homo sapiens) [compound 598]

row,"Peptide exchange (MHC class I binding score, peptide exchange yield)",Substance
1,″+++″ (≥50% = +++),394 (LLAVIGGLVYL; listed as Homo sapiens) [compound 394]
2,″++″ (≥20% = ++),261 (YVLEFLEEI; listed as Homo sapiens) [compound 261]
3,″+++″ (≥50% = +++),597 (KLLEGQVIQL; listed as Homo sapiens) [compound 597]
4,″+++″ (≥50% = +++),497 (GLLEKLTAI; listed as Homo sapiens) [compound 497]
5,″++++″ (≥75% = ++++),235 (YLNDLHEVLL; listed as Homo sapiens) [compound 235]
6,″+++″ (≥50% = +++),189 (ALQRKLPYV; listed as Homo sapiens) [compound 189]
7,″+++″ (≥50% = +++),529 (LLADELITV; listed as Homo sapiens) [compound 529]
8,″+++″ (≥50% = +++),351 (SLIPNLRNV; listed as Homo sapiens) [compound 351]
9,″+++″ (≥50% = +++),224 (TLIDAQWVL; listed as Homo sapiens) [compound 224]
10,″+++″ (≥50% = +++),514 (ILVDWLVQV; listed as Homo sapiens) [compound 514]
11,″+++″ (≥50% = +++),50 (SLSELEALM; listed as Homo sapiens) [compound 50]
12,″+++″ (≥50% = +++),239 (AAFAGKLLSV; listed as Homo sapiens) [compound 239]
13,″+++″ (≥50% = +++),430 (HLYSSIEHLTT; listed as Homo sapiens) [compound 430]
14,″+″ (≥10% = +),520 (LAVHPSGVAL; listed as Homo sapiens) [compound 520]
15,″++″ (≥20% = ++),579 (NLMEMVAQL; listed as Homo sapiens) [compound 579]
16,″+++″ (≥50% = +++),541 (SMLEPVPEL; listed as Homo sapiens) [compound 541]
17,″+++″ (≥50% = +++),125 (VQIHQVAQV; listed as Homo sapiens) [compound 125]
18,″++″ (≥20% = ++),207 (GLTSTNAEV; listed as Homo sapiens) [compound 207]
19,″+++″ (≥50% = +++),286 (YLFPGIPEL; listed as Homo sapiens) [compound 286]
